US20240343803A1 (SHANDONG SIMCERE BIOPHARMACEUTICAL, published 2024)
Read-outs that look alike come from different tables or passages of the source.

T1: Fusion protein of extracellular domain of human TIGIT and His-tag (human TIGIT ECD-his) (human)
T1 chain: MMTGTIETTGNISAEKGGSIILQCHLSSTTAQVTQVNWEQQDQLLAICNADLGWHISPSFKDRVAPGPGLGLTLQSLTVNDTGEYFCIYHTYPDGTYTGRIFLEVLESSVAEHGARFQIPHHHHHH

T2: Fusion protein of extracellular domain of human TIGIT and mouse IgG2a Fc fragment (human TIGIT ECD-mFc) (human)
T2 construct: The entry includes the signal peptide (limits not recoverable) and the mouse IgG2a Fc
T2 chain: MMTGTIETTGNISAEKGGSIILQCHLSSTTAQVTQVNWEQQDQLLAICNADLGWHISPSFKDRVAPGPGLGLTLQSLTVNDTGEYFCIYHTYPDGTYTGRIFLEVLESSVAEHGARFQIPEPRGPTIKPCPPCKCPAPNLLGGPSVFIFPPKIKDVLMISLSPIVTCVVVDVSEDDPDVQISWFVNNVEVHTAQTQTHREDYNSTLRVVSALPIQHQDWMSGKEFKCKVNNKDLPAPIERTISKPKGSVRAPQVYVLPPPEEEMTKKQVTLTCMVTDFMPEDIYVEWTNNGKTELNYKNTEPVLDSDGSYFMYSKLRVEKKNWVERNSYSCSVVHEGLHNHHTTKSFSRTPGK

T3: Full-length human TIGIT on CHO-K1 cells (CHO-K1 human TIGIT) (human, UniProt Q495A1 22-244)
T3 construct: NCBI XP_024309156.1; the entry includes the signal peptide (limits not recoverable); The strain (high, medium, low) is named under assay; also called high expression strain 1D2; medium expression strain 2D10
T3 sequence: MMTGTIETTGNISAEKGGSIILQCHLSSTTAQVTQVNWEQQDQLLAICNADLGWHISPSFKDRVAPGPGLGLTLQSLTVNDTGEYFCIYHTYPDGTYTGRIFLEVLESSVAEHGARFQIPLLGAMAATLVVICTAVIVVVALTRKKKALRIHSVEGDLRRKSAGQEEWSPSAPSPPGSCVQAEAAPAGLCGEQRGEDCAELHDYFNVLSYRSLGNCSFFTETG

T4: TIGIT on human PBMCs stimulated by SEA (human, UniProt Q495A1 22-244)
T4 construct: whole, on cells
T4 sequence (looked up): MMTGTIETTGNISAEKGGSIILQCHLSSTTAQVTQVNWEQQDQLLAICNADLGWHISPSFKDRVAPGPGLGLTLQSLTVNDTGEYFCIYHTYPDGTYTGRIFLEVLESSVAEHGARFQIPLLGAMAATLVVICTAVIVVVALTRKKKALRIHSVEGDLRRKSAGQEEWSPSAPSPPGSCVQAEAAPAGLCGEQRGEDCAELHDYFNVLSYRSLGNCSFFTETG

B1: TIGIT-002-H2L3 (antibody, V domains shown)
VH: EVQLQESGPGLVKPSETLSLTCAVSGYSITSDSWNWIRQPPGKKLEWIGYISYSGNTYYNPSLKSRVTISRDTSKNQFSLKLSSVTAADTAVYYCARLDFSNYGGAVDYWGQGTTVTVSS
VL: DIVMTQSPDSLAVSLGERATINCKASQNVRTAVAWYQQKPGQSPKLMIYSASYRYTGVPDRFSGSGSGTDFTLTISSLQAEDVAVYYCQQYYTTPWTFGGGTKVEIK
notes: Humanized anti-TIGIT antibody
B2: TIGIT-002-H1L3 (antibody, V domains shown)
VH: EVQLQESGPGLVKPSETLSLTCAVSGYSITSDSWNWIRQPPGKGLEWIGYISYSGNTYYNPSLKSRVTISRDTSKNQFSLKLSSVTAADTAVYYCARLDFSNYGGAVDYWGQGTTVTVSS
VL: DIVMTQSPDSLAVSLGERATINCKASQNVRTAVAWYQQKPGQSPKLMIYSASYRYTGVPDRFSGSGSGTDFTLTISSLQAEDVAVYYCQQYYTTPWTFGGGTKVEIK
notes: Humanized anti-TIGIT antibody
B3: TIGIT-002-H3L3 (antibody, V domains shown)
VH: EVQLQESGPGLVKPSETLSLTCAVSGYSITSDSWNWIRQPPGKKLEWMGYISYSGNTYYNPSLKSRITISRDTSKNQFSLKLSSVTAADTAVYYCARLDFSNYGGAVDYWGQGTTVTVSS
VL: DIVMTQSPDSLAVSLGERATINCKASQNVRTAVAWYQQKPGQSPKLMIYSASYRYTGVPDRFSGSGSGTDFTLTISSLQAEDVAVYYCQQYYTTPWTFGGGTKVEIK
notes: Humanized anti-TIGIT antibody
B4: RG6058-hIgG1 (antibody, V domains shown)
VH: EVQLQQSGPGLVKPSQTLSLTCAISGDSVSSNSAAWNWIRQSPSRGLEWLGKTYYRFKWYSDYAVSVKGRITINPDTSKNQFSLQLNSVTPEDTAVFYCTRESTTYDLLAGPFDYWGQGTLVTVSS
VL: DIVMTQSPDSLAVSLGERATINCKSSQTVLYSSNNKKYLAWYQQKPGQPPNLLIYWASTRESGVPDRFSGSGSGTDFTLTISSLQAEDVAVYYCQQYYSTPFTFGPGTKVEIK
notes: Control anti-TIGIT antibody, human IgG1; also called Roche RG6058
B5: TIGIT-CHI-002 (antibody, V domains shown)
VH: EVQLQESGPGLAKPSQTLSLACSVTGYSITSDSWNWIRKFPGNKLEYMGYISYSGNTYYNPSLKSRISITRDTSKNQFYLQLNSVTTEDTATYYCARLDFSNYGGAVDYWGQGTSVTVSS
VL: DIVMTQSHTFMSTSVGDRVSITCKASQNVRTAVAWYQQKPGQSPKLMIYSASYRYTGVPDRFTGSGSGTDFTFTISSVQAEDLAVYYCQQYYTTPWTFGGGAKLEIQ
notes: Human-mouse chimeric antibody

Experiments:
[1] = target: T1, Fusion protein of extracellular domain …; experiment: BIAcore
[2] = target: T5, Full-length cynomolgus monkey TIGIT on CHO-K1 cells (CHO-K1 cynomolgus monkey TIGIT) (cynomolgus monkey); experiment: cell binding, CHO-K1 cynomolgus monkey TIGIT
T5 construct: NCBI XP_015300911.1
Outline: (§1)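 Binding was measured by flow cytometry after a 60-minute, 4° C incubation of the antibodies with 2×10⁵ CHO-K1 cells displaying full-length human or cynomolgus monkey TIGIT. Antibody titration: 12 points, threefold serial dilution from 80 nM, in 1% BSA-PBS.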

[3] = target: T6, Fusion protein of extracellular domain of human TIGIT and human IgG1 Fc fragment (human TIGIT ECD-hFc) (human); experiment: blocking of TIGIT ECD-hFc binding to CHO-K1 CD155 cells
T6 construct: The entry includes the signal peptide (limits not recoverable) and the human IgG1 Fc
Outline: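 The inhibition curves from which IC50 was calculated were generated by cell-based ELISA. Fixed CHO-K1 CD155 cells, blocked with 5% skim milk-PBS, were incubated at 37° C for 1.5-2 h with antibodies that had been premixed for 0.5 h with human TIGIT ECD-hFc at a working concentration of 30 ng/mL. Detection of bound TIGIT used HRP secondary antibody at 1:5000 for 1 h at 37° C, followed by TMB and reading as OD450 nm.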

[4] = target: T7, Fusion protein of extracellular domain of cynomolgus monkey TIGIT and mouse IgG2a Fc fragment (cynomolgus … (cynomolgus monkey)); experiment: ELISA, cynomolgus monkey TIGIT ECD-mFc
T7 construct: The entry includes the signal peptide (limits not recoverable) and the mouse IgG2a Fc
Outline: (§2)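 Plates blocked with 5% skim milk-PBS at 37° C for 2-4 h. Test antibodies applied as a 12-point 3-fold series from 13 nM for 1.5-2 h at 37° C. Read-out: HRP secondary (1:5000, 1 h, 37° C), TMB colour for 7-10 min at room temperature, acid stop, absorbance at OD450 nm.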
Target sequence in this assay (chain, as listed by the source limits assumed): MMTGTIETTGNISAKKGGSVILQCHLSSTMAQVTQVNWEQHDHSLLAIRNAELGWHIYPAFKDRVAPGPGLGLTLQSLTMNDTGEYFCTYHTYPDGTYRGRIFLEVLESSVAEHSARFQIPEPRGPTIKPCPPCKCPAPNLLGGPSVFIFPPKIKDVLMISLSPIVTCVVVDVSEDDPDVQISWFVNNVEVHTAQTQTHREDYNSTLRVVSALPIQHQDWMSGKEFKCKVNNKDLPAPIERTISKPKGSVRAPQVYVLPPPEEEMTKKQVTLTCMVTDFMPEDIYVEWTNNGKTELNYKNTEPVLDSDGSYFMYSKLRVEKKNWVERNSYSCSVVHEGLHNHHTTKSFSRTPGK

[5] = target: T1, Fusion protein of extracellular domain …; experiment: BIAcore; KD ratio to TIGIT-CHI-002
[6] = target: T2, Fusion protein of extracellular domain …; experiment: ELISA, human TIGIT ECD-mFc
Outline: as §2

[7] = target: T3, Full-length human TIGIT on CHO-K1 cells …; experiment: cell binding, CHO-K1 human TIGIT high expression strain
Outline: as §1

[8] = target: T3, Full-length human TIGIT on CHO-K1 cells …; experiment: FACS; CHO-K1 human TIGIT low expression strain
Outline: (§3)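 The EC50 was derived from binding curves obtained by flow cytometry on CHO-K1 cells expressing full-length TIGIT of human or cynomolgus monkey origin. Cells (2×10⁵/50 μL, 1% BSA-PBS) were mixed 1:1 with a 12-point, 3-fold antibody dilution series that began at 80 nM before mixing, then incubated for 60 min at 4° C.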

[9] = target: T5, Full-length cynomolgus monkey TIGIT on …; experiment: FACS; CHO-K1 cynomolgus monkey TIGIT
Outline: as §3

[10] = target: T3, Full-length human TIGIT on CHO-K1 cells …; experiment: FACS; CHO-K1 human TIGIT high expression strain
Outline: as §3

[11] = target: T4, TIGIT on human PBMCs stimulated by SEA; experiment: FACS; binding to SEA-stimulated human PBMC
Procedure: The fresh human PBMCs (AllCells, PB004-C) were adjusted to a density of 5×10⁵/mL, added with SEA (Toxin Technology, Inc., CAT: AT101) to 100 ng/ml, and cultured at 37° C. with 5% CO₂ for 3 days. The cells were collected 3 days later, washed once with PBS (Hyclone, CAT #SH30256), added with Fc Block (BD, 564220) and then incubated at 4° C. for 10 minutes. After washing twice with PBS, the PBMCs were resuspended to 2×10⁵/50 μL with 1% BSA-PBS. The humanized antibodies were diluted to 80 nM with 1% BSA-PBS (diluted by 3-fold serial dilution for 12 concentration points). The 50 μL cells were then mixed with 50 μL diluted antibodies, and then incubated at 4° C. for 60 minutes. […] After washing twice with PBS, the cell samples were resuspended with 1% BSA-PBS, 100 μL/well and then analyzed by flow cytometry (BD, Canto II).

[12] = target: T2, Fusion protein of extracellular domain …; experiment: FACS; blocking of TIGIT ECD-mFc binding to CHO-K1 CD155 cells
[13] = target: T1, Fusion protein of extracellular domain …; experiment: BIAcore
[14] = target: T2, Fusion protein of extracellular domain …; experiment: ELISA, human TIGIT ECD-mFc
[15] = target: T3, Full-length human TIGIT on CHO-K1 cells …; experiment: FACS; blocking of Bio-CD155-His binding to CHO-K1 human TIGIT cells
Outline: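 IC50 values in this blocking assay come from inhibition curves. CHO-K1 human TIGIT cells (2×10⁵/40 μL in 1% BSA-PBS) were combined with equal volumes of antibody, a 12-point 3-fold dilution series starting at 210 nM, and biotinylated CD155-His, diluted to 3 μg/mL, for 60 min at 4° C. Ligand binding was detected with APC-streptavidin (1:1700, 40 min, 4° C) and read by flow cytometry on a BD Canto II.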

[16] = target: T3, Full-length human TIGIT on CHO-K1 cells …; experiment: FACS; CHO-K1 human TIGIT medium expression strain
Outline: as §3

[17] = target: T7, Fusion protein of extracellular domain …; experiment: ELISA, cynomolgus monkey TIGIT ECD-mFc; remark: listed apart in the source
[18] = target: T2, Fusion protein of extracellular domain …; experiment: FACS; blocking of TIGIT ECD-mFc binding to CHO-K1 CD112 cells
Procedure: The collected CHO-K1 CD112 cells were washed once with PBS (Hyclone, CAT #SH30256) and resuspended to 2×10⁵/40 μL with 1% BSA-PBS. The anti-TIGIT humanized antibodies were diluted to 600 nM with 1% BSA-PBS (diluted by 2.5-fold serial dilution for 12 concentration points). The TIGIT ECD-mFc was diluted with 1% BSA-PBS to 6 μg/mL. The 40 μL cells were then mixed with 40 μL diluted antibodies and 40 μL diluted TIGIT ECD-mFc, and then incubated at 4° C. for 60 minutes. […] The cell samples were washed twice with PBS, resuspended to 100 μL/well with 1% BSA-PBS and then analyzed by flow cytometry (BD, Canto II). […] (f) The binding activity of anti-TIGIT humanized antibodies to human PBMCs detected by FACS.

[19] = target: T1, Fusion protein of extracellular domain …; experiment: BIAcore; reference itself

T6 sequence (chain, as listed by the source limits assumed): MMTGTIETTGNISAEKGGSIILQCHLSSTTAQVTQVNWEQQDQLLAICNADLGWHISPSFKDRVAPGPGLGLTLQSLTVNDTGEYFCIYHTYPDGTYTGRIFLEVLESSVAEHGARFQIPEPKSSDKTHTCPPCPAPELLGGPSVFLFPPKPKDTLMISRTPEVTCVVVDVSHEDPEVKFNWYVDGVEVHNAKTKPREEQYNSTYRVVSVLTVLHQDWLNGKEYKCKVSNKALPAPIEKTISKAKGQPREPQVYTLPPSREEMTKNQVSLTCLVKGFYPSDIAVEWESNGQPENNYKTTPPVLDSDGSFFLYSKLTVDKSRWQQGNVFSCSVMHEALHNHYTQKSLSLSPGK
T5 sequence (chain, as listed by the source limits assumed): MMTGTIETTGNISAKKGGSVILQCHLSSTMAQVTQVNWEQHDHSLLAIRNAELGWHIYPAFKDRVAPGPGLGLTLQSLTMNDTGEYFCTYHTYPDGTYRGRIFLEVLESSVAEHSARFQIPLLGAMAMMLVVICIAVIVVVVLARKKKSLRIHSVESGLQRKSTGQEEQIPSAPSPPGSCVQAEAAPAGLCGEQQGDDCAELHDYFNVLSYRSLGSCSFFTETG

Row | Binder | Kd [1] [pM] | koff [1] [s⁻¹] | kon [1] [M⁻¹ s⁻¹] | EC50 [2] [pM] | IC50 [3] [pM] | EC50 [4] [pM] | Fold change vs chimeric antibodies (KD) [5] [fold] | EC50 [6] [pM] | EC50 [7] [pM] | other results
1 | B1 | 266 | 0.00107 | 4.03e+06 | 150 | 540 | 33.7 | 6.3 | 15.9 | 27.8 | 
2 | B2 | 271 | 0.000973 | 3.59e+06 | 143 | 395 | 51.1 | 6.44 | 15.7 | 25.3 | 
3 | B3 | 188 | 0.000852 | 4.52e+06 | 91.9 | 338 | 22 | 4.47 | 17.3 | 36.1 | 
4 | B4 |  |  |  |  |  |  |  |  |  | EC50 [8]: 481 pM; EC50 [9]: 2280 pM; EC50 [10]: 794 pM; EC50 [11]: 285 pM; IC50 [12]: 584 pM; Kd [13]: 156 pM; koff [13]: 0.000135 s⁻¹; kon [13]: 866000 M⁻¹ s⁻¹; EC50 [14]: 39.3 pM; IC50 [15]: 334 pM; EC50 [16]: 652 pM; EC50 [17]: 48.6 pM; IC50 [18]: 6000 pM
5 | B5 | 42.1 | 0.0003 | 7.13e+06 | 37.2 | 564 | 20 |  | 16.1 | 21.8 | Fold change vs chimeric antibodies (KD) [19]: 1 fold
